According to article doi:10.1101/2025.11.17.688825 (bioRxiv, 2025):

Target: T1, 14-3-3ζ (residues 1-245, 14-3-3ζ-strep, chain of the 14-3-3ζ/ERα^(LBD_F) complex) (human, UniProt P63104 1-245)
T1 sequence: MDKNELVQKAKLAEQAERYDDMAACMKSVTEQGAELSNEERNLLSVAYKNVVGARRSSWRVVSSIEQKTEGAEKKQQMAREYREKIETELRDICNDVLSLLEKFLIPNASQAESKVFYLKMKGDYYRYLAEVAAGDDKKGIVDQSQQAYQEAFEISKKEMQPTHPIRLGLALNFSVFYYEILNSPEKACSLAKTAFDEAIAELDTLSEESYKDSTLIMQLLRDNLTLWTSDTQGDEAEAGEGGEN
Experiment: mass photometry

B1: ERα^(LBD_F) (ERα residues 302-595, S305A, F591R, P592R, phosphorylated T594) (domain or fragment)
chain: KKNALALSLTADQMVSALLDAEPPILYSEYDPTRPFSEASMMGLLTNLADRELVHMINWAKRVPGFVDLTLHDQVHLLECAWLEILMIGLVWRSMEHPGKLLFAPNLLLDRNQGKCVEGMVEIFDMLLATSSRFRMMNLQGEEFVCLKSIILLNSGVYTFLSSTLKSLEEKDHIHRVLDKITDTLIHLMAKAGLTLQQQHQRLAQLLLILSHIRHMSNKGMEHLYSMKCKNVVPLYDLLLEMLDAHRLHAPTSRGGASVEETDQSHLATAGSTSSHSLQKYYITGEAEGRRATV
modifications: phosphorylated T594 (PKA co-expression)
  stoichiometry N: 1 ERα(LBD_F) per 14-3-3ζ (2:2)
